Results on 32 molecules are retold here after patent US20200069786A1, “COMPOSITION AND PROCESS FOR PREPARING VACCINE” (TREOS BIO ZRT., priority 2018, published 2020).

Series [1] relates to metastatic ovarian adenocarcinoma. Kind of series: Patient-A clinical outcome and tumor MRI. In kind it is in vivo, human. From the text:
2017-2018: Patient-A received 8 cycles of vaccination as add-on therapy, and lived 17 months (528 days) after start of the treatment. […] They died in October 2018.
Patient' tumor MRI findings (Baseline Apr. 15, 2016) (BL: baseline for tumor response evaluation on FIG. 22) Disease was confined primarily to liver and lymph nodes. The use of MRI limits detection of lung (pulmonary) metastasis May 2016-January 2017: Olaparib treatment (FU1: follow up 1 on FIG. 22) Dec. […] Peritoneal carcinomatosis with increased amount of ascites. Progressive hepatic tumor and lymph node
Jul. 26, 2017 (after the 2nd Cycle of PIT): (FU4 on FIG. 22) Progression/Pseudo-Progression • Rapid progression in lymph nodes, hepatic, retroperitoneal and thoracic areas, significant pleural fluid and ascites. Initiate Carboplatin, Gemcitabine, Avastin. Sep. […] Nov. […] Remission in hepatic, retroperitoneal area and lymph nodes

The test system of series [2] is TSA. Conditions: cited from earlier work.
Series [3] relates to subjects of 64 clinical studies. Conditions: published clinical trials; proportion of subjects in the study population with T cell responses induced by the study vaccine; cited from earlier work.
The mark [4] stands for this setting: FU1, Olaparib treatment May 2016-January 2017.
Setting [5] is: FU2, Dec. 25, 2016, before PIT vaccine treatment.
Where [6] appears, read: FU3, Apr. 6, 2017, after TOPO protocol.
Setting [7] is: TSA expression rate in Esophageal.
The mark [8] stands for this setting: TSA expression rate in HEAD and NECK.
[9] abbreviates: TSA expression rate in LUNG cancer.
Where [10] appears, read: TSA expression rate in MELANOMA
Setting [11] is: TSA expression rate in PROSTATE cancer.
Where [12] appears, read: TSA expression rate in BLADDER cancer.
Where [13] appears, read: TSA expression rate in Cervical cancer.
Where [14] appears, read: TSA expression rate in GASTRIC cancer.
[15] abbreviates: TSA expression rate in PEDIATRIC
Where [16] appears, read: TSA expression rate in LEUKEMIAS

Like-named read-outs stand apart in the source and are kept apart here.

Take `O=C(c1cc(Cc2n[nH]c(=O)c3ccccc23)ccc1F)N1CCN(C(=O)C2CC2)CC1` [Olaparib]: in series [1] (setting [4]), the “SUM of lesions (% Δ from BL)” value is listed as −66.3%, the “TL1 (% Δ from BL)” value is −56.1%, the “TL2 (% Δ from BL)” value was −100.0% and the “TL3 (% Δ from BL)” value is −59.4%. The “TL4 (% Δ from BL)” value in series [1] (setting [4]) is given as −65.8%. Further, in series [1] (setting [5]), the “SUM of lesions (% Δ from BL)” value is listed as −76.0%, the “TL1 (% Δ from BL)” value is recorded as −44.4%, the “TL2 (% Δ from BL)” value was −100.0% and the “TL3 (% Δ from BL)” value is reported as −62.3%. Further, the “TL4 (% Δ from BL)” value in series [1] (setting [5]) is −100.0%.
For `CC[C@@]1(O)C(=O)OCc2c1cc1n(c2=O)Cc2cc3c(CN(C)C)c(O)ccc3nc2-1` [TOPO protocol], in series [1] (setting [6]), the “SUM of lesions (% Δ from BL)” value was −68.9%, the “TL1 (% Δ from BL)” value is given as −44.8%, the “TL2 (% Δ from BL)” value was −47.1% and the “TL3 (% Δ from BL)” value is −62.0%. Moreover, the “TL4 (% Δ from BL)” value in series [1] (setting [6]) is −100.0%.
Consider “BAGE-1 (RLMKEESPVVSWRLEPEDGTALCFIF; UniProt Q13072 18-43, looked up)”, for which the “TSA Expression Rate (ER)” value in series [2] (BREAST) is recorded as 9%. The “Expression Rate (ER) %” value was 0% in series [2] (TSA expression rate in CRC); 6% in series [2] (setting [7]); 6% in series [2] (setting [8]); 0% in series [2] (TSA expression rate in Kidney); 10% in series [2] (setting [9]); 26% in series [2] (setting [10]). Also, the “Expression Rate (ER) %” value in series [2] (setting [11]) is given as 0%.
In the case of “BAGE-5 (RLMKEESPVVSWRLEPEDGTALCFIF; UniProt Q86Y27 18-43, looked up)”, the “Expression Rate (ER) %” value in series [2] (setting [10]) was 9%.
Take CASC5: the figures for the “TSA Expression Rate (ER)” value in series [2] (LUNG) and in series [2] (PANCREATIC) were 41% and 27%, respectively.
In the case of CDCA1, the “TSA Expression Rate (ER)” value in series [2] (BREAST) is on record as 64%; in series [2] (HCC) it was 100%; in series [2] (LUNG), 85%. Besides, the “Expression Rate (ER) %” value in series [2] (setting [12]) was 100%; in series [2] (TSA expression rate in CRC), 40%; in series [2] (setting [13]) it was 18%; in series [2] (setting [7]), 22%; in series [2] (setting [14]) it was 0%; in series [2] (TSA expression rate in Kidney), 100%. Also, the “Expression Rate (ER) %” value in series [2] (setting [11]) was 85%.
Regarding DBPC, the “TSA Expression Rate (ER)” value in series [2] (BREAST) is reported as 50%; in series [2] (HCC) it was 40%; in series [2] (LUNG), 30%; in series [2] (OVARIAN) it was 20%; in series [2] (PANCREATIC), 60%. Besides, the “Expression Rate (ER) %” value is given as 90% in series [2] (TSA expression rate in CRC), 50% in series [2] (setting [14]), 10% in series [2] (TSA expression rate in Kidney) and 40% in series [2] (setting [11]).
In the case of DCAF12, the “TSA Expression Rate (ER)” value in series [2] (LUNG) was 89%. Also, the “Expression Rate (ER) %” value in series [2] (setting [11]) is given as 59%.
As for DKK1, the “TSA Expression Rate (ER)” value in series [2] (PANCREATIC) was 84%.
As for DMRT1, the “Expression Rate (ER) %” value in series [2] (setting [11]) is listed as 24%.
With EPHA2, the “TSA Expression Rate (ER)” value in series [2] (BRAIN) is 95%. In addition, the “Expression Rate (ER) %” value in series [2] (setting [15]) is recorded as 100%.
With EZH2, the “TSA Expression Rate (ER)” value in series [2] (BRAIN) is 100%.
As to “Her2/neu peptide vaccine (p688) (RRLLQETEL; UniProt P04626 688-696, looked up, fragment)”, the IRR in series [3] is 31%.
For “Her2/neu peptide vaccine (p971) (ELVSEFSRM; UniProt P04626 971-979, looked up, fragment)”, the IRR in series [3] was 54%.
As for JARID1B, the “TSA Expression Rate (ER)” value is given as 76% in series [2] (BREAST), 29% in series [2] (HCC), 55% in series [2] (LUNG) and 71% in series [2] (OVARIAN). Also, the “Expression Rate (ER) %” value in series [2] (setting [16]) is recorded as 60%; in series [2] (setting [10]), 100%; in series [2] (setting [11]), 100%.
Regarding LDHC, the “TSA Expression Rate (ER)” value is on record as 35% in series [2] (BREAST), 29% in series [2] (LUNG), 43% in series [2] (OVARIAN) and 25% in series [2] (THYROID). Besides, the “Expression Rate (ER) %” value was 15% in series [2] (TSA expression rate in CRC); 83% in series [2] (setting [13]); 0% in series [2] (setting [8]); 57% in series [2] (TSA expression rate in Kidney); 44% in series [2] (setting [10]); 38% in series [2] (setting [11]).
On to MAGE-A10, for which the “TSA Expression Rate (ER)” value is 34% in series [2] (BREAST); 15% in series [2] (HCC); 24% in series [2] (LUNG); 38% in series [2] (OVARIAN); 1% in series [2] (PANCREATIC); 2% in series [2] (THYROID). For the same molecule, the “Expression Rate (ER) %” value in series [2] (setting [12]) is recorded as 28%; in series [2] (TSA expression rate in CRC), 3%; in series [2] (setting [13]), 0%; in series [2] (setting [7]), 27%; in series [2] (setting [14]), 30%; in series [2] (setting [8]), 12%. Moreover, the “Expression Rate (ER) %” value in series [2] (TSA expression rate in Kidney) was 1%; in series [2] (setting [16]) it was 0%; in series [2] (setting [10]) it was 45%; in series [2] (setting [15]), 33%; in series [2] (setting [11]), 10%.
Regarding MPHOSPH1, the “Expression Rate (ER) %” value in series [2] (setting [12]) is 90%.
Take MSLN: the “TSA Expression Rate (ER)” value in series [2] (PANCREATIC) is reported as 96%.
MUC-1: the “Expression Rate (ER) %” value in series [2] (setting [11]) is reported as 34%.
As for NKX3.1, the “TSA Expression Rate (ER)” value in series [2] (THYROID) is recorded as 0%. The “Expression Rate (ER) %” value in series [2] (setting [11]) was 70%.
In the case of OIP5, the “Expression Rate (ER) %” value in series [2] (setting [14]) is reported as 48%; in series [2] (setting [8]), 12%.
As for PRAME, the “TSA Expression Rate (ER)” value is 56% in series [2] (BRAIN); 49% in series [2] (BREAST); 63% in series [2] (LUNG); 59% in series [2] (OVARIAN); 60% in series [2] (THYROID). Besides, the “Expression Rate (ER) %” value in series [2] (setting [12]) was 19%; in series [2] (TSA expression rate in CRC), 4%; in series [2] (setting [14]) it was 21%; in series [2] (setting [8]), 61%; in series [2] (TSA expression rate in Kidney), 40%; in series [2] (setting [16]) it was 23%. Further, the “Expression Rate (ER) %” value in series [2] (setting [10]) was 90%; in series [2] (setting [15]), 75%; in series [2] (setting [11]), 10%.
For SOX-6, in series [2] (BRAIN), the “TSA Expression Rate (ER)” value is recorded as 60%.
As for SPINLW1, the “TSA Expression Rate (ER)” value in series [2] (BRAIN) is 47%.
As to SSX-1, the “TSA Expression Rate (ER)” value is recorded as 0% in series [2] (BRAIN); 9% in series [2] (BREAST); 69% in series [2] (HCC); 2% in series [2] (OVARIAN); 0% in series [2] (PANCREATIC); 0% in series [2] (THYROID). For the same molecule, the “Expression Rate (ER) %” value in series [2] (setting [12]) is reported as 7%; in series [2] (TSA expression rate in CRC) it was 2%; in series [2] (setting [13]), 4%; in series [2] (setting [7]), 0%; in series [2] (setting [14]) it was 13%; in series [2] (setting [8]) it was 40%. In addition, the “Expression Rate (ER) %” value is 0% in series [2] (TSA expression rate in Kidney); 31% in series [2] (setting [16]); 8% in series [2] (setting [9]); 6% in series [2] (TSA expression rate in LYMPHOMAS); 25% in series [2] (setting [10]); 76% in series [2] (setting [15]). For the same molecule, the “Expression Rate (ER) %” value in series [2] (setting [11]) is listed as 7%.
Consider SSX-7, for which, in series [2] (BRAIN), the “TSA Expression Rate (ER)” value is 0%.
For SYCE1, the “Expression Rate (ER) %” value in series [2] (setting [9]) is listed as 11%.
Consider TDRD4, for which the “TSA Expression Rate (ER)” value in series [2] (HCC) was 14%.
For the molecule TEX15, the entries for the “TSA Expression Rate (ER)” value in series [2] (BREAST), in series [2] (LUNG) and in series [2] (THYROID) were 0%, 21% and 0%, respectively. Moreover, the “Expression Rate (ER) %” value in series [2] (setting [12]) is recorded as 21%; in series [2] (TSA expression rate in CRC), 0%; in series [2] (setting [7]), 20%; in series [2] (setting [8]) it was 11%; in series [2] (TSA expression rate in Kidney) it was 33%; in series [2] (setting [10]) it was 27%. Also, the “Expression Rate (ER) %” value in series [2] (setting [11]) is reported as 13%.
In the case of TSGA10, the “TSA Expression Rate (ER)” value is 83% in series [2] (BRAIN), 70% in series [2] (BREAST), 20% in series [2] (HCC) and 35% in series [2] (OVARIAN). The “Expression Rate (ER) %” value in series [2] (setting [12]) is on record as 38%; in series [2] (TSA expression rate in CRC), 5%; in series [2] (setting [10]) it was 25%; in series [2] (setting [11]), 15%.
With WT1, the “TSA Expression Rate (ER)” value in series [2] (BRAIN) is on record as 81%; in series [2] (BREAST), 7%; in series [2] (HCC), 86%; in series [2] (OVARIAN) it was 63%; in series [2] (PANCREATIC) it was 72%; in series [2] (THYROID) it was 97%. Also, the “Expression Rate (ER) %” value is 91% in series [2] (TSA expression rate in CRC), 5% in series [2] (setting [13]) and 88% in series [2] (setting [7]).
